Earlier results in US8759488B2, “High stability streptavidin mutant proteins” (Isis Innovation Limited, priority 2009, dated 2014).
Several values for one entry are separate records, joined by “and”; a condition that tells them apart may be missing. Identical values can stand only once.

B1: monomeric streptavidin: streptavidin subunit unable to tetramerise, e.g. with mutations T76R, V125R, V55T and L109T (protein)
chain: DPSKDSKAQVSAAEAGITGTWYNQLGSTFIVTAGADGALTGTYESAVGNAESRYTLTGRYDSAPATDGSGTALGWRVAWKNNYRNAHSATTWSGQYVGGAEARINTQWTLTSGTTEANAWKSTLRGHDTFTKVKPSAASIDAAKKAGVNNGNPLDAVQQ
half life for biotin (biotin): approximately 3 minutes | off rate of biotin (free biotin): 0.0034 s⁻¹ and 0.0041 s⁻¹
